In patent publication US20190071480A1 (Biogen, published 2019) one finds Kd data, which are given here for 19 molecules.

Substitutions are numbered along the chain they refer to.

In general, Kd refers to the constant that tells how readily two partners part at equilibrium. Low values mean a tighter complex, high ones a looser complex.

In assay [1] the target is T1, extracellular domain of activin receptor type IIB (ActRIIBecd), biotinylated (Homo sapiens (Human), UniProt Q13705 27-117, amino-biotinylated with amine-PEG3-Biotin).
T1 construct: immobilised on a streptavidin-coated sensor chip; also called biotinylated ActRIIBecd; extracellular domain of ActRIIB
T1 sequence: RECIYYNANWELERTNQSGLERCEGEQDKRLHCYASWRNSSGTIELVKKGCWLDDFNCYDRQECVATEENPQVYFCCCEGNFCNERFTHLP
Description: BIAcore SPR, biotinylated ActRIIBecd on chip; SD ±16.58 nM. The protocol: (§1) Biosensor experiments. In one embodiment, experiments were performed on a BIAcore™ T100/T200 instrument (Pharmacia Biosensor AB) in the multichannel mode (serial flow path involving flow cells 1+2+3+4). Flow rate was 10 μl/min; temperature was 25° C.; and data were recorded at 2.5 points/s. All four segments of a sensor chip CMS were coated with streptavidin (Sigma) to a density of 2000 pg/mm² (2000 resonance units) by the aminocoupling procedure. ActRIIBecd (10 mg) and amine-PEG3-Biotin (10 mg, Pierce, Rockford, Ill.) were dissolved in 200 μl H₂O and 10 mg NaCNBH₃ was added to prepare biotinylated ActRIIBecd. The reaction mixture was heated at 70° C. for 24 h, after that a further 10 mg NaCNBH₃ was added and the reaction was heated at 70° C. for another 24 h. After cooling to room temperature, the mixture was desalted with the spin column (3,000 molecular weight cut off (MWCO)). […] Sensograms were recorded during flow of the analyte (the ActRIIBecd-associated polypeptides (i.e., domains) as previously described) first through flow cell 1 (control) then through flow cell 2 (biotinylated ActRIIBecd). […] The sensograms obtained at 1.11, 3.33, 10, 30, and 90 nM analyte were evaluated for equilibrium binding, association rate, and dissociation rate by using the programs supplied with the instrument (BIA evaluation 2.1; Software Handbook. 1995; Pharmacia Biosensor AB).
A general note: In SPR one partner is held on a chip, and binding of the other changes the refractive index at the surface.

For assay [2], the target named is T1, extracellular domain of activin …. Description: BIAcore SPR, biotinylated ActRIIBecd on chip; SD ±13.69 nM. The protocol:
as §1

Assay [3] has the same target. Description: BIAcore SPR, biotinylated ActRIIBecd on chip; SD ±16.11 nM. The protocol:
as §1

The target is the same in assay [4]. Description: BIAcore SPR, biotinylated ActRIIBecd on chip; SD ±12.76 nM. The protocol:
as §1

For assay [5] the target is unchanged. Description: BIAcore SPR, biotinylated ActRIIBecd on chip; SD ±15.71 nM. The method, then:
as §1

Assay [6] shares this target. Description: BIAcore SPR, biotinylated ActRIIBecd on chip; SD ±12.47 nM. The protocol:
as §1

Assay [7] shares this target. Description: BIAcore SPR, biotinylated ActRIIBecd on chip; SD ±16.51 nM. The protocol:
as §1

For assay [8] the target is unchanged. Description: BIAcore SPR, biotinylated ActRIIBecd on chip; SD ±12.34 nM. The method, then: as §1
Assay [9] has the same target. Description: BIAcore SPR, biotinylated ActRIIBecd on chip; SD ±19.11 nM. The method, then: as §1
Assay [10] shares this target. Description: BIAcore SPR, biotinylated ActRIIBecd on chip; SD ±17.84 nM. The method, then: as §1
The target is the same in assay [11]. Description: BIAcore SPR, biotinylated ActRIIBecd on chip; SD ±13.71 nM. The method, then:
as §1

Assay [12] has the same target. Description: BIAcore SPR, biotinylated ActRIIBecd on chip; SD ±12.78 nM. The protocol:
as §1

Assay [13] shares this target. Description: BIAcore SPR, biotinylated ActRIIBecd on chip; SD ±18.14 nM. The protocol: as §1
Assay [14] shares this target. Description: BIAcore SPR, biotinylated ActRIIBecd on chip; SD ±12.89 nM. The method, then:
as §1

For assay [15] the target is unchanged. Description: BIAcore SPR, biotinylated ActRIIBecd on chip; SD ±18.67 nM. The method, then:
as §1

For assay [16] the target is unchanged. Description: BIAcore SPR, biotinylated ActRIIBecd on chip; SD ±11.79 nM. The protocol: as §1
Assay [17] shares this target. Description: BIAcore SPR, biotinylated ActRIIBecd on chip; SD ±19.51 nM. The method, then: as §1
For assay [18] the target is unchanged. Description: BIAcore SPR, biotinylated ActRIIBecd on chip; SD ±13.64 nM. The protocol: as §1
Assay [19] shares this target. Description: BIAcore SPR, biotinylated ActRIIBecd on chip; SD ±12.74 nM. The method, then:
as §1

B1: Recombinant polypeptide of clones 21 + 15 (designed binder)
chain: NSKIPKACCVPTELSAISMLYLDENEKVVLKNYQDMVVEGCGCRVDFSDVGWNDWIVAPPGYHAFYCHGECPFPLADHLNSTNHAIVQTLVNSV
The molecule B1 returned a Kd in assay [1] of 31 nM.

B2: Recombinant polypeptide of clones 26 + 16 (designed binder)
chain: TYPASPKPMRHSMRSCACCAGGLRNQTGTVVDFSDVGWNDWAVAPPGYHAFYCHGECPFPLADHLNSDNHAIVQTLVNSV
In turn, B2 returned a Kd in assay [2] of 61.7 nM.

B3: Recombinant polypeptide of clones 12 + 28 (designed binder)
chain: AQAKHKQYKRLKSSCKRHPLYEPLGGARWEAFDVTDAVQSHRRSPRASRKCCLGLRAVTAS
On to B3, for which binding in assay [3] was put at a Kd of 59.1 nM.

B4: Recombinant polypeptide of clones 21 + 10 (designed binder)
chain: NSKIPKACCVPTELSAISMLYLDENEKVVLKNYQDMVVEGCGCRAQAKHKQRKRLKSSCKRHPLY
B4 returned a Kd in assay [4] of 30.2 nM.

B5: Recombinant polypeptide of clones 19 + 8 (designed binder)
chain: NSKDPKACCVPTELSAPSPLYLDENEKPVLKNYQDMVVHGCGCRGQAKRKGYKRLKSSCKRHPLY
As to B5, binding in assay [5] was characterised by a dissociation constant (Kd) of 33.5 nM.

B6: Recombinant polypeptide of clones 12 + 30 (designed binder)
chain: AQAKHKQYKRLKSSCKRHPLYTALDGTRGAQGSGGGGGGGGGGGGGGGGGGGGAGRGHGRRGRSRCSRKSLHVDFKELG
Consider B6, for which, in assay [6], binding was characterised by a dissociation constant (Kd) of 59.1 nM.

B7: Recombinant polypeptide of clones 14 + 8 (designed binder)
chain: VDFKDVGWNDHAVAPPGYHAFYCHGECPFPLADHLNSDNHAIVQTKVNSVGQAKRKGYKRLKSSCKRHPLY
B7 gave a Kd in assay [7] of 33.8 nM.

B8: Recombinant polypeptide of clones 12 + 25 (designed binder)
chain: AQAKHKQYKRLKSSCKRHPLYTYPASPKPMRHKMRSCACCAGGLRNRTGTV
B8 yielded a Kd in assay [8] of 51.2 nM.

B9: Recombinant polypeptide of clones 16 + 26 (designed binder)
chain: VDFSDVGWNDWAVAPPGYHAFYCHGECPFPLADHLNSDNHAIVQTLVNSVTYPASPKPMRHSMRSCACCAGGLRNQTGTV
In [9], B9 returned an equilibrium dissociation constant (Kd) of 57.8 nM.

B10: Recombinant polypeptide of clones 24 + 23 (designed binder)
chain: NSKDPKACCVPTELSAISMLYLDENEKVVLKNYQDMVVHGCGCRNSKIPKACCVPTELSAISMLYLDENEKPVLKNYQDMVVEGCGCR
B10 showed a Kd in assay [10] of 62.7 nM.

B11: Recombinant polypeptide of clones 30 + 12 (designed binder)
chain: TALDGTRGAQGSGGGGGGGGGGGGGGGGGGGGAGRGHGRRGRSRCSRKSLHVDFKELGAQAKHKQYKRLKSSCKRHPLY
As for B11, in assay [11], the Kd is 61.1 nM.

B12: Recombinant polypeptide of clones 15 + 21 (designed binder)
chain: VDFSDVGWNDWIVAPPGYHAFYCHGECPFPLADHLNSTNHAIVQTLVNSVNSKIPKACCVPTELSAISMLYLDENEKVVLKNYQDMVVEGCGCR
The molecule B12 displayed a Kd in assay [12] of 32.6 nM. That is a double-digit nanomolar value.

B13: Recombinant polypeptide of clones 16 + 29 (designed binder)
chain: VDFSDVGWNDWAVAPPGYHAFYCHGECPFPLADHLNSDNHAIVQTLVNSVEPLGGARWEAFDVTDAVQSHRRSQRASRKCCLVLRAVTAS
In assay [13], B13 gave a Kd of 58.7 nM.

B14: Recombinant polypeptide of clones 29 + 16 (designed binder)
chain: EPLGGARWEAFDVTDAVQSHRRSQRASRKCCLVLRAVTASVDFSDVGWNDWAVAPPGYHAFYCHGECPFPLADHLNSDNHAIVQTLVNSV
In [14], B14 registered a Kd of 54.3 nM.

B15: Recombinant polypeptide of clones 28 + 12 (designed binder)
chain: EPLGGARWEAFDVTDAVQSHRRSPRASRKCCLGLRAVTASAQAKHKQYKRLKSSCKRHPLY
In assay [15], B15 registered a Kd of 57.9 nM. That is a double-digit nanomolar value.

B16: Recombinant polypeptide of clones 10 + 21 (designed binder)
chain: AQAKHKQRKRLKSSCKRHPLYNSKIPKACCVPTELSAISMLYLDENEKVVLKNYQDMVVEGCGCR
Consider B16, for which the affinity in assay [16], expressed as Kd, was 27.3 nM.

B17: Recombinant polypeptide of clones 12 + 16 (designed binder)
chain: AQAKHKQYKRLKSSCKRHPLYVDFSDVGWNDWAVAPPGYHAFYCHGECPFPLADHLNSDNHAIVQTLVNSV
Molecule B17 gave a Kd in [17] of 67.4 nM.

B18: Recombinant polypeptide of clones 8 + 14 (designed binder)
chain: B17 chain with A1G, H5R, Q7G, S25K, W32H, L67K
In [18], B18 yielded a Kd of 35.1 nM.

B19: Recombinant polypeptide of clones 10 + 15 (designed binder)
chain: B17 chain with Y8R, A33I, D59T
Regarding B19, in [19], the Kd amounted to 31.3 nM.
